Reference: the supplement of paper PMC7125110
± gives the standard error. For part of these data: This sample holds only a part of the variants without activity.

B1: glmS ribozyme (parent)
chain: AUAAAAGCGCCAGAACUACAGAAAUGUAGUUGACGAGGAGGAGGUUUAUCGAAUUUUCGGCGGAUGCCUCCAAA

Columns and labels:
Settings in all cases: with glucosamine-6-phosphate
glucosamine-6-phosphate [1] = variants of: B1; assay: kcat; higher = faster cleavage; RNA array
Outline: (§1)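 Over ~14 h at 37 °C, tiles were imaged as glucosamine-6-phosphate (40 μM to 10 mM) in HEPES/KCl/Mg(OAc)2 buffer flowed across sequenced MiSeq chips. The chips carried barcoded ribozyme variants transcribed in situ by E. coli RNA polymerase and tracked with a hybridised Cy3 probe. After normalisation to baseline and to non-cleaving reference variants, one- or two-exponential decay fits of per-tile medians gave kobs. kcat and KM followed from weighted Michaelis–Menten fits across concentrations.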

glucosamine-6-phosphate [2] = variants of: B1; assay: KM; higher = weaker cofactor use; RNA array
Outline: as §1

glucosamine-6-phosphate [3] = variants of: B1; assay: self-cleavage kobs at 10000 uM GlcN6P; higher = faster cleavage; RNA array
Outline: as §1

glucosamine-6-phosphate [4] = variants of: B1; assay: self-cleavage kobs at 160 uM GlcN6P; higher = faster cleavage; RNA array
Outline: as §1

glucosamine-6-phosphate [5] = variants of: B1; assay: self-cleavage kobs at 640 uM GlcN6P; higher = faster cleavage; RNA array
Outline: as §1

glucosamine-6-phosphate [6] = variants of: B1; assay: self-cleavage kobs at 2500 uM GlcN6P; higher = faster cleavage; RNA array
Outline: as §1

glucosamine-6-phosphate [7] = variants of: B1; assay: self-cleavage kobs at 40 uM GlcN6P; higher = faster cleavage; RNA array
Outline: as §1

| Variant | kcat (glucosamine-6-phosphate [1]) [s⁻¹] | KM (glucosamine-6-phosphate [2]) [µM] | self-cleavage kobs at 10000 uM GlcN6P (glucosamine-6-phosphate [3]) [s⁻¹] | self-cleavage kobs at 160 uM GlcN6P (glucosamine-6-phosphate [4]) [s⁻¹] | self-cleavage kobs at 640 uM GlcN6P (glucosamine-6-phosphate [5]) [s⁻¹] | self-cleavage kobs at 2500 uM GlcN6P (glucosamine-6-phosphate [6]) [s⁻¹] | self-cleavage kobs at 40 uM GlcN6P (glucosamine-6-phosphate [7]) [s⁻¹] |
| --- | --- | --- | --- | --- | --- | --- | --- |
| A12G G62C | < 1e-05 | 151 ± 74 | < 1e-05 | – | – | – | – |
| G63U C67A | < 1e-05 | – | < 1e-05 | < 1e-05 | – | – | – |
| C11U U55C | 0.00286 ± 0.00063 | 6220 ± 1800 | 0.00181 ± 0.0003 | 6.7e-05 ± 1.2e-05 | 0.00029 ± 4.1e-05 | 0.000776 ± 0.0001 | – |
| C11U U55G | 0.0019 ± 0.00039 | 1700 ± 660 | 0.00164 ± 0.00016 | 0.000214 ± 4.9e-05 | 0.000351 ± 7.6e-05 | 0.00137 ± 0.00026 | 5.89e-05 ± 1.1e-05 |
| A52U U69A | 5.73e-05 ± 1.5e-05 | – | 3.63e-05 ± 1.2e-05 | – | 4.77e-05 ± 1.1e-05 | 7.38e-05 ± 1.2e-05 | – |
| C11A A53U | 0.000128 ± 2.5e-06 | 2860 ± 180 | 9.96e-05 ± 1.2e-05 | – | – | 6.02e-05 ± 1.6e-05 | – |
| A53C C70A | 5.94e-05 ± 1.5e-05 | – | 5.03e-05 ± 1.1e-05 | – | – | 6.85e-05 ± 1.7e-05 | < 1e-05 |
| U49G U65G | 0.0002 ± 2.3e-05 | 6050 ± 1500 | 0.000124 ± 1.8e-05 | – | – | 6.08e-05 ± 1.7e-05 | – |
| A12U U45G | 0.0202 ± 0.0044 | 1870 ± 530 | 0.0165 ± 0.0026 | 0.00127 ± 0.00021 | 0.00546 ± 0.0011 | 0.0134 ± 0.0027 | 0.000515 ± 6.4e-05 |
| G63C C67G | < 1e-05 | – | – | – | – | – | < 1e-05 |
| G38U G62A | < 1e-05 | – | – | < 1e-05 | – | – | – |
| G13A U47C | 8.51e-05 ± 5.3e-06 | 7300 ± 1000 | 4.92e-05 ± 1.1e-05 | – | – | – | – |
| A36C A52G | < 1e-05 | – | – | – | – | – | – |
| A52G A53G | 0.00183 ± 0.00052 | 3690 ± 1700 | 0.00145 ± 0.0002 | 0.000131 ± 3e-05 | 0.000264 ± 5.9e-05 | 0.000638 ± 0.0001 | – |
| A6U A53G | 0.000783 ± 0.00011 | 8850 ± 1500 | 0.000404 ± 8.1e-05 | – | 5.15e-05 ± 9e-06 | 0.000178 ± 2.2e-05 | – |
| G37U U65G | < 1e-05 | 1260 ± 500 | – | < 1e-05 | < 1e-05 | – | < 1e-05 |
| A6C C71A | 2.27e-05 ± 4.2e-07 | 205 ± 38 | 2.19e-05 ± 1.1e-05 | – | – | – | – |
